For one substance, [3H]NE uptake on cotransfection (% of wt alone) results are on record in patent US20030170875A1.

The assay concerns the target wild type human norepinephrine transporter (human) (UniProt P23975). In words: cell-based or functional assay.

“human norepinephrine transporter A457P mutant (from UniProt P23975 1-617)” registered a [3H]NE uptake on cotransfection (% of wt alone) of 59.
